Experimental findings from patent publication US20190211081A1 (Chugai, published 2019) are described below.

Changes are numbered by the printed parent chain.

Assay [1] concerns the target T1, soluble human FcRn (complex of FcRn and beta2-microglobulin) (human, UniProt P55899 24-290; P61769 21-119).
T1 construct: Expressed constructs contain the signal regions (FcRn Met1-Leu290; beta2-microglobulin Met1-Met119); Secreted from HEK293H cells and purified; also called hFcRn
Description: Biacore 3000, antibody captured, human FcRn as analyte, pH 6.0, steady state affinity. A general note: In SPR one partner is held on a chip, and binding of the other changes the refractive index at the surface.
Description: (§1) The binding to human FcRn was assessed using Biacore 3000. An antibody was bound to Protein L or rabbit anti-human IgG Kappa chain antibody immobilized onto a sensor chip, human FcRn was added as an analyte for interaction with the antibody, and the affinity (KD) was calculated from the amount of bound human FcRn. Specifically, Protein L or rabbit anti-human IgG Kappa chain antibody was immobilized onto sensor chip CM5 (BIACORE) by the amine coupling method using 50 mM Na-phosphate buffer (pH 6.0) containing 150 mM NaCl as the running buffer. […] Human FcRn was then injected and the binding of the human FcRn to antibody was assessed.
The affinity was computed using BIAevaluation Software. The obtained sensorgram was used to calculate the amount of hFcRn bound to the antibody immediately before the end of human FcRn injection. The affinity of the antibody for human FcRn was calculated by fitting with the steady state affinity method.
The resulting antibodies were assessed for their human FcRn-binding activity by the method described above.

The target in assay [2] is T1, soluble human FcRn (complex of FcRn and …). Description: Biacore T100, human FcRn immobilized on CM4 chip, antibody as analyte (divalent avidity), pH 6.0, 25 C, KD from ka and kd.
Description: Then, the present inventors assessed in this Example the binding of IgG to FcRn with divalent avidity by immobilizing human FcRn onto a sensor chip and injecting IgG as an analyte to more closely mimic the in vivo case.
First, about 2,000 RU of human FcRn was immobilized onto sensor chip CM4 (GE Healthcare) by the amino coupling method. Reagents used in the amino coupling were: ethanol amine (GE Healthcare), 50 mM NaOH solution (GE Healthcare), NHS (GE Healthcare), EDC (GE Healthcare). HBS-EP+ solution (10×HBS-EP+ solution (GE Healthcare) was used after dilution) was used as the mobile phase. Then, antibodies were each injected as an analyte into the sensor chip immobilized with human FcRn for three minutes to observe the binding of FcRn to the antibodies. After this observation, the mobile phase was injected for five minutes to assess the dissociation of each antibody variants from FcRn. All measurements were carried out at 25° C. The mobile phase used was 10 mM Cit (pH 6.0)/150 mM NaCl/0.05% Tween20.
From the obtained sensorgrams, the association rate constant ka (1/Ms) and dissociation rate constant kd (1/s) were calculated for the three minutes of binding phase using Biacore T100 Evaluation Software (GE Healthcare). The dissociation constant KD (M) was determined based on these values.
Assay [3] has the same target. The assay can be described thus: Biacore 3000, antibody captured, human FcRn as analyte, pH 6.0.
Description: as §1
(§2) The obtained sensorgram was used to calculate the amount of hFcRn bound to the antibody immediately before the end of human FcRn injection. The affinity of the antibody for human FcRn was calculated by fitting with the steady state affinity method.
The target is the same in assay [4]. The assay can be described thus: Biacore 3000, antibody captured on Protein L or rabbit anti-human kappa antibody, human FcRn as analyte, pH 6.0, steady state affinity.
Description: as §1, §2

T1 sequence (P55899 24-290 limits assumed, chain 1 of 2): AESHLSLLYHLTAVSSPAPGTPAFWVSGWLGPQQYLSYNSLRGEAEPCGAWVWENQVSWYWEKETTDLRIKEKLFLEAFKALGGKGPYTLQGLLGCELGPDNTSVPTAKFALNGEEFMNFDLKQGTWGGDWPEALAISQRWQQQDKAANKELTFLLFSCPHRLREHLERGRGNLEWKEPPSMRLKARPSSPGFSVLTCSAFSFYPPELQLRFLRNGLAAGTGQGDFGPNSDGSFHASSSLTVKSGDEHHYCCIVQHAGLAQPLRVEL
T1 sequence (P61769 21-119 limits assumed, chain 2 of 2): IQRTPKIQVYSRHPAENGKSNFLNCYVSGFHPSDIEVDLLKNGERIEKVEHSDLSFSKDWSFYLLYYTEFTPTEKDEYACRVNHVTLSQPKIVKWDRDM

B1: IL31R H0-IgG1/L0-k0 (antibody)
heavy: not shown
light: DIQMTQSPSSLSASVGDRVTITCRTSENIYSFLAWYQQKPGKAPKLLIYNAKTLAKGVPSRFSGSGSGTDFTLTISSLQPEDFATYYCQHHYESPLTFGGGTKVEIKRTVAAPSVFIFPPSDEQLKSGTASVVCLLNNFYPREAKVQWKVDNALQSGNSQESVTEQDSKDSTYSLSSTLTLSKADYEKHKVYACEVTHQGLSSPVTKSFNRGEC
notes: also called anti-IL-31 receptor antibody, IgG1-k0
With B1, in assay [1], the Kd came out at 1070 nM.

B2: IL31R H0-M58/L0-k0 (antibody)
heavy: QVQLVQSGAEVKKPGASVKVSCKASGYTFTGYIMNWVRQAPGQGLEWMGLINPYNGGTSYNQKFKGRVTITADESTSTAYMELSSLRSEDTAVYYCARDGYDDGPYTMDYWGQGTLVTVSSASTKGPSVFPLAPSSKSTSGGTAALGCLVKDYFPEPVTVSWNSGALTSGVHTFPAVLQSSGLYSLSSVVTVPSSNFGTQTYTCNVDHKPSNTKVDKTVERKSCVECPPCPAPPVAGPSVFLFPPKPKDTLMISRTPEVTCVVVDVSQEDPEVQFNWYVDGVEVHNAKTKPREEQFNSTFRVVSVLTVVHQDWLNGKEYKCKVSNKGLPAPIEKTISKTKGQPREPQVYTLPPSQEEMTKNQVSLTCLVKGFYPSDIAVEWESNGQPENNYKTTPPMLDSDGSFFLYSKLTVDKSRWQEGNVFSCSVMHEALHNHYTQKSLSLSP
light: B1 light
notes: also called anti-IL-31 receptor antibody, M58-k0
As to B2, the Kd in assay [1] is 910 nM.

B3: IL6R H0-M58/L0-k0 (antibody, IgG2)
heavy: QVQLQESGPGLVRPSQTLSLTCTVSGYSITSDHAWSWVRQPPGRGLEWIGYISYSGITTYNPSLKSRVTMLRDTSKNQFSLRLSSVTAADTAVYYCARSLARTTAMDYWGQGSLVTVSSASTKGPSVFPLAPSSKSTSGGTAALGCLVKDYFPEPVTVSWNSGALTSGVHTFPAVLQSSGLYSLSSVVTVPSSNFGTQTYTCNVDHKPSNTKVDKTVERKSCVECPPCPAPPVAGPSVFLFPPKPKDTLMISRTPEVTCVVVDVSQEDPEVQFNWYVDGVEVHNAKTKPREEQFNSTFRVVSVLTVVHQDWLNGKEYKCKVSNKGLPAPIEKTISKTKGQPREPQVYTLPPSQEEMTKNQVSLTCLVKGFYPSDIAVEWESNGQPENNYKTTPPMLDSDGSFFLYSKLTVDKSRWQEGNVFSCSVMHEALHNHYTQKSLSLSP
light: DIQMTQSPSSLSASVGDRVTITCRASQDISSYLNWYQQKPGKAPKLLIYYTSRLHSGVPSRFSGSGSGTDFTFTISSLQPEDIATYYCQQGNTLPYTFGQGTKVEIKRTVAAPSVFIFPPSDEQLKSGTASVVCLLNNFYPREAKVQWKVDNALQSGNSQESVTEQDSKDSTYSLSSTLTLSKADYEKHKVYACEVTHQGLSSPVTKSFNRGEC
notes: L-chain constant region k0; also called M58-k0 (anti-IL-6 receptor antibody)
In the case of B3, the Kd came to 1030 nM in assay [1], 3.85 nM in assay [2] and 1030 nM in assay [4]. Moreover, the “fold increase of binding compared to IL6R H0-IgG1/L0-k0” value in assay [3] was around 1.4 times.

B4: IL6R H0-M66/L0-k3 (antibody)
heavy: B3 heavy with S221C, C222S
light: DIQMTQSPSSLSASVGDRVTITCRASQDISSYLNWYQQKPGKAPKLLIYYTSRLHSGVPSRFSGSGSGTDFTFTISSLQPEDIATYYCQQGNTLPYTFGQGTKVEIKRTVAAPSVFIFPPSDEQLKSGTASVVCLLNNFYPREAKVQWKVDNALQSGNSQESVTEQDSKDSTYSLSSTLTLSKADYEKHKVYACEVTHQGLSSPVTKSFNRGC
notes: also called M66-k3
With B4, the Kd in assay [2] came out at 3.26 nM.

B5: IL6R H0-M66/L0-k0 (antibody)
heavy: B3 heavy with S221C, C222S
light: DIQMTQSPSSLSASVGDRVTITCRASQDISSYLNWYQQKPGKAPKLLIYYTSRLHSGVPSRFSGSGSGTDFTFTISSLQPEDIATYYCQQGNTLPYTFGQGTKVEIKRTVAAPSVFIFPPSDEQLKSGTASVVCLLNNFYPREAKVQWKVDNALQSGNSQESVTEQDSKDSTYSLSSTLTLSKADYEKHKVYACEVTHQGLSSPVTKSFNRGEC
notes: L-chain constant region k0; also called M66-k0
The molecule B5 displayed a Kd in assay [2] of 3.54 nM.
